Assay: soluble on expression in E. coli; label from the status in PepcDB or PDB records

NLMYYGTFIIDNPVKKGAEKFIAQCREISVPVFVATGDTTKAAENIAKVLCPANAGKIVTLRADQIDEKGIEFLNEENYPSDSTVIFSGINEAILNRFQKLMGREGAKRPVVIFAEMSTEGKGVLARYLKDHHYFVVANGDGTNDVMMMKNSNVVIAHHSDDGTFAPGVDGLTN
soluble on expression in E. coli: not soluble

GAFGWEQDRGAPFSGRSPRILTRMTDAPRPTAGADAPARPPAAPLVAPNFITEIIERDLEAGKYPRVVTRFPPDPSGYAHLGHVFASLLDFNTARQYGGQFNLRMDDTNPELARQEYVDSIADDLKWLGLDWGEHFYYASDYFDRYYAYAEQLIRQGDAYVESVSPEELSRLRGNATTPGTPSPYRDRSVEENLDLLRRMKAGEFADGEHVLRAKIDLTAPNMKLRDPVLYRIVNKPHFRTSDEWHIYPAYDFEHPLQDAIEGVTHSMCSLEFVDNRAIYDWLMEKLNFDPRPHQYEFGRRGLEYTITSKRKLRELVQAGRVSGWDDPRMPTLRAQRRLGVTPEAVRAFAAQIGVSRTNRTVDIAVYENAVRDDLNHRAPRVMAVLDPVKVTLTNLDGEKTLSLPYWPHDVVRDSPDGLVGMPGGGRVAPEEAVRDVPLTRELYIERDDFSPAPPKGFKRLTPGGTVRLRGAGIIRADDFGTDEAGQVTHIRATLLGEDAKAAGVIHWVSAERALPAEFRLYDRLFRVPHPEGENADVEDDSAGPAEHEAEPGAGQETAPVSQGFMRYLTPDSLRVLRGYVEPSVAGDPADTRYQFERQGYFWRDPVELERVDSREDALVFGRIITLKDTWGKQGGGTQQKAEGKKRPSTKGRGPDEVRGEGSSSPAKAHAPKAQPLTPEQDAEFTRLLGLGASEGDARTIARDPALLAFVGGAAPGDTFAQVASWTVNELVAGLRAGEVKVRAADLAPLAEGVASGQLSARIAREALARAAASGDAPLTIIEREGLNAGLSAEALQQVVAQVIAANPDKAEAYRGGKTALLGFFTGQVMRATAGKADPQALAAALKDALA
soluble on expression in E. coli: soluble

LPLRESHTAHQATDFGVKVFQQVVQASKDRNVVFSPYGVSSVLAMLQMTTAGKTRRQIQDAMGFKVNEKGTAHALRQLSKELMGPWNKNEISTADAIFVQRDLELVQGFMPHFFKLFQTMVKQVDFSEVERARFIINDWVERHTKGMINDLLAKGAVDELTRLVLVNALYFSGQWKTPFLEASTHQRLFHKSDGSTVSVPMMAQSNKFNYTEFTTPDGLEYDVVELPYQGDTLSMFIAAPFEKDVHLSALTNILDAELIRQWKGNMTRLPRLLILPKFSLETEVDLRGPLEKLGMPDMFSATLADFTSLSDQEQLSVAQALQKVRIEVNESGTVASSSTAFVISARMAPTEMVIDRSFLFVVRHNPTETILFMGQVMEP
soluble on expression in E. coli: soluble

MSPGSSTGMVSEKCGDAESKRAPYPPPLRLARRVCYPQYTQKSLDMRAQEKLVGRKRDMKMARFLAKQAKESKEMVKKAAKETTEKTTKNDSTV
soluble on expression in E. coli: not soluble

MGSDKIHHHHHHMSIGIVIASHGEFAAGIKQSGSMIFGEQEKVQVVTFMPSEGPTDLHAKIEAAIATFDAEDEVLVLADLWSGSPFNQASAVMGENPERKIAIITGLNLPMLIQAYTERMMDASAGVDKVVANIMKEAKGGIKVLPEELQPAEETAVAAAPAAVQGAIPEGTVIGDGKIKINLARIDSRLLHGQVATAWTPDSRANRIIVVSDTVSKDELRKKLIEQAAPTGVKANVIPIKKMIEVAKDPRFGDTKALLLFETPQDALATIEGGVPIETLNVGSMAHSTGKTMLNKVLSMDKDDVATFEKLRDLGVKFDVRKVPADSKSDLFGLINKADVQ
soluble on expression in E. coli: not soluble

MGSDKIHHHHHHMAIILGGMVPRPPWKYRLLAAIHAHRNAGDPGADPLVRRAVERLVAVTSRVVFGVEKPGWITSGASEGNLLALYTLREEGYRRVVAFDTSHYSIKKSALTLSMELDLLPTHGGRPRLDLLERRITPDSVVVATVGTTQEGLVDPVEEIAGVAESVGAAVHVDAAYGGYIARFLTGKARFRLEPPVMTVVVDAHKIPEAPPPAGVILASKQKLLDNLWFESPYIPTGRQFGILGTRPGGPIVAAWRRVEDLERNPGFPRLASILMRRLRKTLKALERLGYETPVTPDLPVACATHPRLGEVLERLKASGVRVYRCRSPKPCLHVTNYGRLCRARLGSSRSPRGCLRKPLGASLGNPGVTGLGL
soluble on expression in E. coli: not soluble

MGSDKIHHHHHHMLRLSRELEVGEATVKRWLAGKGLTIDRLERLAGLCGMVLGDLVREAEEAPGVLAHELTLAQERALSSNIFLSFLFMTILNGIQPDETAADFSVPPREMEAALTRLERLALIDRLRSGRVRPLVDRNMVFRKLPLRNLFETHMKRVFFELDYGAPETIYTSEVVKLSVAGAAQLAELLERFRGEVQSLADRDAEKANKDRDWFGVLCVMRPLEMDPIRNAWWELS
soluble on expression in E. coli: not soluble

MGSDKIHHHHHHMFRVVICDDEKIQRSILKEFTEKLLSERCLNYQILEFSCGEDLISKYPEKIDIIFLDIQMKDINGIEVAKKIRKFDEKVEIIFTTAFSEYAPQGYEVRAYRYLVKPIEYSNFAMGVNLCIDNLQRKKERYIVLNSKKGFNRILIDSILYVETVKRDLVVHTIGRDYKANMSMKQAEKLLCENGFFRCHTSFIVNLRRIEDLRDNMITINEQFIPISKYRLKDLKVALTSLLCDIMY
soluble on expression in E. coli: not soluble

MVHYYRLSLKSRQKAPKIVNSKYNSILNIALKNFRLCKKHKTKKPVQILALLQEIIPKSYFGTTTNLKRFYKVVEKILTQSSFECIHLSVLHKCYDYDAIPWLQNVEPNLRPKLLLKHNLFLLDNIVKPIIAFYYKPIKTLNGHEIKFIRKEEYISFESKVFHKLKKMKYLVEVQDEVKPRGVLNIIPKQDNFRAIVSIFPDSARKPFFKLLTSKIYKVLEEKYKTSGSLYTCWSEFTQKTQGQIYGIKVDIRDAYGNVKIPVLCKLIQSIPTHLLDSEKKNFIVDHISNQFVAFRRKIYKWNHGLLQGDPLSGCLCELYMAFMDRLYFSNLDKDAFIHRTVDDYFFCSPHPHKVYDFELLIKGVYQVNPTKTRTNLPTHRHPQDEIPYCGKIFNLTTRQVRTLYKLPPNYEIRHKFKLWNFNNQISDDNPARFLQKAMDFPFICNSFTKFEFNTVFNDQRTVFANFYDAMICVAYKFDAAMMALRTSFLVNDFGFIWLVLSSTVRAYASRAFKKIVTYKGGKYRKVTFQCLKSIAWRAFLAVLKRRTEIYKGLIDRIKSREKLTMKFHDGEVDASYFCKLPEKFRFVKINRKASI
soluble on expression in E. coli: soluble

MGSDKIHHHHHHMYSSEKMQWFAMRATYRRGMQIKGLLDQKGINSFIPMRYEIHLKNGHRRRELVPVIRDIVFVHTTQSELQRIKYGIPYFQYMMDIRNGEKIIVPDEQMRRFIAVAGTYDEQIIFFSPDEVNLRKGTKVRITGGQFEGYEGVFVKVKGSRDRRVVISLQGILALAMATLSPDLIEVIEEPKKRNHD
soluble on expression in E. coli: not soluble

MGHHHHHHSHMLSRWDDSQRFLSDHPYLVCEETAKYLILWCFHLEAEKKGALMEQIAHQAVVMQFIMEMAKNCNVDPRGCFRLFFQKAKAEEEGYFEAFKNELEAFKSRVRLYSQSQSFQPMTVQNHVPHSGVGSIGLLESLPQNPDYLQYSISTALCSLNSVVHKEDDEPKMMDTV
soluble on expression in E. coli: not soluble

MGSDKIHHHHHHMRGKILIFLHAHLPYVHHPEYDHFLEERWLFEAITETYIPLLMMFDEIEDFRLTMSITPPLMEMLSSRDLQEKYERHMEKLIELANKEVERTKKEHPLKHKMAKFYREHFEKILNVFRSYDGNILEGFKKYQETGKLEIVTCNATHAFLPLYQMYPEVVNAQITVGVKNYAKHMTLHPRGIWLAECGYYQGLDLYLAQNNVEYFFVDSHAFWFADEQPRYGVYRPIMTPSGVFAFARDPESSEQVWSAAVGYPGDPRYREFYRDIGFDREMEYIKDYIDPSGVRINTGIKYHRITSKSLDASQKEYYDIDLAMEAVEEHARDFLHKKESQARRLMDIMGVEPVIVAPFDAELFGHWWFEGVFFLKRFFELVNESKDLKLVTASEVIDTLEEVQIATPADSSWGAGGYYETWLNGTNDWIYRHLHEMIERMIDLSKKYYNSSDPLVERVLNQMLRELFLAQSSDWAFIMTTRTSVQYAENRTKLHIKRFLNLYDQLVSGRIDEEMLRYYEWTDAIFPEINFRVMARDVI
soluble on expression in E. coli: not soluble

MRFYIKTFGCQMNENDSEAMAGLLVKEGFTPASSPEEADVVIINTCAVRRKSEEKAYSELGQVLKLKKKKKIVVGVAGCVAEKEREKFLEKGADFVLGTRAVPRVTEAVKKALEGEKVALFEDHLDEYTHELPRIRTSRHHAWVTIIHGCDRFCTYCIVPYTRGRERSRPMADILEEVKKLAEQGYREVTFLGQNVDAYGKDLKDGSSLAKLLEEASKIEGIERIWFLTSYPTDFSDELIEVIAKNPKVAKSVHLPVQSGSNRILKLMNRRYTKEEYLALLEKIRSKVPEVAISSDIIVGFPTETEEDFMETVDLVEKAQFERLNLAIYSPREGTVAWKYYKDDVPYEEKVRRMQFLMNLQKRINRKLNERYRGKTVRIIVEAQAKNGLFYGRDIRNKIIAFEGEDWMIGRFADVKVEKITAGPLYGKVVWVEKTPSPVSSSE
soluble on expression in E. coli: soluble

SHKLPSGPPMHHFNSRYSETGCVGMQIRDAHEENPESILDEHVQRVMKTPGCQSPGTGRHSPKSRSPDGH
soluble on expression in E. coli: soluble

MFEEKASSPSGKMGGEEKPIGAGEEKQKEGGKKKNKEGSGDGGRAELNPWPEYIYTRLEMYNILKAEHDSILAEKAEKDSKPIKVTLPDGKQVDAESWKTTPYQIACGISQGLADNTVIAKVNNVVWDLDRPLEEDCTLELLKFEDEEAQAVYWHSSAHIMGEAMERVYGGCLCYGPPIENGFYYDMYLEEGGVSSNDFSSLEALCKKIIKEKQAFERLEVKKETLLAMFKYNKFKCRILNEKVNTPTTTVYRCGPLIDLCRGPHVRHTGKIKALKIHKNSSTYWEGKADMETLQRIYGISFPDPKMLKEWEKFQEEAKNRDHRKIGRDQELYFFHELSPGSCFFLPKGAYIYNALIEFIRSEYRKRGFQEVVTPNIFNSRLWMTSGHWQHYSENMFSFEVEKELFALKPMNCPGHCLMFDHRPRSWRELPLRLADFGVLHRNELSGALTGLTRVRRFQQDDAHIFCAMEQIEDEIKGCLDFLRTVYSVFGFSFKLNLSTRPEKFLGDIEVWDQAEKQLENSLNEFGEKWELNSGDGAFYGPKIDIQIKDAIGRYHQCATIQLDFQLPIRFNLTYVSHDGDDKKRPVIVHRAILGSVERMIAILTENYGGKWPFWLSPRQVMVVPVGPTCDEYAQKVRQQFHDAKFMADIDLDPGCTLNKKIRNAQLAQYNFILVVGEKEKISGTVNIRTRDNKVHGERTISETIERLQQLKEFRSKQAEEEF
soluble on expression in E. coli: soluble

Reference: the DeepSol protein solubility set
